Values quoted from earlier work in publication PMC7855609.

How the values were obtained:
[1] = molecular target: Asp226 (UniProt position 292, CLALVDTGASY); experiment: kinetics; conditions: Enzyme turning over the wild-type peptide substrate PTDP (His at P2)
[2] = molecular target: Asp38 (UniProt position 104, FKVVFDTGSSN); experiment: kinetics; conditions: Enzyme turning over the wild-type peptide substrate PTDP (His at P2)

Substance: Renin (recombinant human renal renin) (Homo sapiens)
- pKa [1]: 6.3
- pKa [2]: 5.3
